Test results taken from US20260158160A1 (MACFARLANE BURNET INSTITUTE FOR MEDICAL RESEARCH AND PUBLIC …, published 2026).
Read-outs that look alike come from different tables or passages of the source.

Experiments:
[1] = target: T1, SARS-CoV-2 spike protein expressed on Ramos-S cells (SARS-CoV-2, UniProt P0DTC2 14-1273); experiment: flow cytometry on Ramos-S cells
T1 construct: whole, on cells; also called S protein; Ramos cells expressing transfected spike protein

[2] = target: T2, dimeric rsFcγRIIa (H131 allelic form) (UniProt P12318 34-217); experiment: flow cytometry: Ramos-S cells opsonised with the ACE2-Fc protein, biotinylated dimeric rsFcγRIIa probe, streptavidin-APC
T2 construct: also called dimeric recombinant soluble FcγRIIa
T2 sequence: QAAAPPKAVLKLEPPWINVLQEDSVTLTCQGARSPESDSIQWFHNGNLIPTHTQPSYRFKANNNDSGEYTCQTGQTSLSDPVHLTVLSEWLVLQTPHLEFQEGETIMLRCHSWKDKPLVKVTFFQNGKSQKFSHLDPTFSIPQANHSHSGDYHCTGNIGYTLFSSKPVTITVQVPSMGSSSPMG

[3] = target: human death receptor 5 (DR5) on cells (human, UniProt O14763 56-440); experiment: cell-based or functional assay
[4] = target: T3, FcγRIIIa V158 on NF-κB-RE nanoluciferase reporter cells (UniProt P08637 17-254); experiment: cell-based or functional assay
T3 sequence (P08637 17-254 F176V limits assumed): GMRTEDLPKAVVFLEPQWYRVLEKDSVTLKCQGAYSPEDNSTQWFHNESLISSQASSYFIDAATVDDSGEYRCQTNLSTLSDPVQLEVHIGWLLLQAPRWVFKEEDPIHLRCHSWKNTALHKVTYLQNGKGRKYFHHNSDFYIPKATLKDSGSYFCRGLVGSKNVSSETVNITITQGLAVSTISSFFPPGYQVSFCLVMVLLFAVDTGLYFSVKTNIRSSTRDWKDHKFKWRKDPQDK

[5] = target: T3, FcγRIIIa V158 on NF-κB-RE …; experiment: cell-based or functional assay; remark: listed apart in the source

B1: CC40.8-WT (antibody)
heavy: not shown
light: SYELTQPPSVSVSPGQTARITCSGDALPKRYAYWYQQKSGQAPILVIYEDKKRPSGIPERLSGSKSGTVATLTISGAQVEDEADYYCYSTDSSGNHAVFGGGTQLTVLGQPKAAPSVFIFPPSDEQLKSGTASVVCLLNNFYPREAKVQWKVDNALQSGNSQESVTEQDSKDSTYSLSSTLTLSKADYEKHKVYACEVTHQGLSSPVTKSFNRGEC
- binding result [1]: binds

B2: EflACE2-Fc-H429Y (Fc fusion)
chain: ETGSTIEEQAKYFLDKFNHEAEDLFYQSSLASWNYNTNITEENVQNMNNAGDKWSAFLKEQSTTAQMYPLQEIQNLTVKLQLQALQQNGSSVLSEDKSKRLNTILNTMSTIYSTGKVCNPDNPQECLLLEPGLNEIMANSLDYNERLWAWESWRSEVGKQLRPLYEEYVVLKNEMARANHYEDYGDYWRGDYEVNGVDGYDYSRGQLIEDVEHTFEEIKPLYEHLHAYVRAKLMNAYPSYISPIGCLPAHLLGDMWGRFWTNLYSLTVPFGQKPNIDVTDAMVDQAWDAQRIFKEAEKFFVSVGLPNMTQGFWEYSMLTDPGNVQKAVCHPTAWDLGKGDFRILMCTKVTMDDFLTAHHEMGHIQYDMAYAAQPFLLRNGANEGFHEAVGEIMSLSAATPKHLKSIGLLSPDFQEDNETEINFLLKQALTIVGTLPFTYMLEKWRWMVFKGEIPKDQWMKKWWEMKREIVGVVEPVPHDETYCDPASLFHVSNDYSFIRYYTRTLYQFQFQEALCQAAKHEGPLHKCDISNSTEAGQKLFNMLRLGKSEPWTLALENVVGAKNMNVRPLLNYFEPLFTWLKDQNKNSFVGWSTDWSPYADQSIKVRISLKSALGDRAYEWNDNEMYLFRSSVAYAMRQYFLKVKNQMILFGEEDVRVANLKPRISFNFFVTAPKNVSDIIPRTEVEKAIRMSRSRINDAFRLNDNSLEFLGIQPTLGPPNQPPVSGGGGSTHTCPPCPAPELLGGPSVFLFPPKPKDTLMISRTPEVTCVVVDVSHEDPEVKFNWYVDGVEVHNAKTKPREEQYNSTYRVVSVLTVLHQDWLNGKEYKCKVSNKALPAPIEKTISKAKGQPREPQVYTLPPSREEMTKNQVSLTCLVKGFYPSDIAVEWESNGQPENNYKTTPPVLDSDGSFFLYSKLTVDKSRWQQGNVFSCSVMYEALHNHYTQKSLSLSPGK
notes: also called EflACE2-Fc-H429Yoli; Yoli
- binding result [2]: no binding (tested: 5 µg/ml (opsonising protein))

B3: TDR5-A2WT (antibody)
heavy: QVQLVQSGAEVKKPGASVKVSCKASGFNIKDTHMHWVRQAPGQRLEWIGRIDPANGNTEYDQKFQGRVTITVDTSASTAYMELSSLRSEDTAVYYCARWGTNVYFAYWGQGTLVTVSSASPTSPKVFPLSLDSTPQDGNVVVACLVQGFFPQEPLSVTWSESGQNVTARNFPPSQDASGDLYTTSSQLTLPATQCPDGKSVTCHVKHYTNPSQDVTVPCPVPPPPPCCHPRLSLHRPALEDLLLGSEANLTCTLTGLRDASGATFTWTPSSGKSAVQGPPERDLCGCYSVSSVLPGCAQPWNHGETFTCTAAHPELKTPLTANITKSGNTFRPEVHLLPPPSEELALNELVTLTCLARGFSPKDVLVRWLQGSQELPREKYLTWASRQEPSQGTTTFAVTSILRVAAEDWKKGDTFSCMVGHEALPLAFTQKTIDRLAG
light: DIQLTQSPSSLSASVGDRVTITCSASSSVSYMYWYQQKPGKAPKPWIYRTSNLASGVPSRFSGSGSGTDFTLTISSLQPEDFATYYCQQYHSYPPTFGGGTKVEIKRTVAAPSVFIFPPSDEQLKSGTASVVCLLNNFYPREAKVQWKVDNALQSGNSQESVTEQDSKDSTYSLSSTLTLSKADYEKHKVYACEVTHQGLSSPVTKSFNRGEC
- death of Colo205 cells, EC50 as dilution of culture supernatant [3]: ~0.167 dilution

B4: TDR5-A2HF (antibody)
heavy: QVQLVQSGAEVKKPGASVKVSCKASGFNIKDTHMHWVRQAPGQRLEWIGRIDPANGNTEYDQKFQGRVTITVDTSASTAYMELSSLRSEDTAVYYCARWGTNVYFAYWGQGTLVTVSSASPTSPKVFPLSLDSTPQDGNVVVACLVQGFFPQEPLSVTWSESGQNVTARNFPPSQDASGDLYTTSSQLTLPATQCPDGKSVTCHVKHYTNPSQDVTVPCPVPPPPPCCHPRLSLHRPALEDLLLGSEANLTCTLTGLRDASGATFTWTPSSGKSAVQGPPERDLCGCYSVSSVLPGCAQPWNHGETFTCTAAHPELKTPLTANITKSGNTFRPEVHLLPPPSEELALNELVTLTCLARGFSPKDVLVRWLQGSQELPREKYLTWASRQEPSQGTTTFAVTSILRVAAEDWKKGDTFSCMVGFEALPLAFTQKTIDRLAG
light: DIQLTQSPSSLSASVGDRVTITCSASSSVSYMYWYQQKPGKAPKPWIYRTSNLASGVPSRFSGSGSGTDFTLTISSLQPEDFATYYCQQYHSYPPTFGGGTKVEIKRTVAAPSVFIFPPSDEQLKSGTASVVCLLNNFYPREAKVQWKVDNALQSGNSQESVTEQDSKDSTYSLSSTLTLSKADYEKHKVYACEVTHQGLSSPVTKSFNRGEC
- death of Colo205 cells, EC50 as dilution of culture supernatant [3]: > 0.00195 dilution

B5: rituximab-WT (antibody, human IgG1, kappa)
heavy: not shown
light: QIVLSQSPAILSASPGEKVTMTCRASSSVSYIHWFQQKPGSSPKPWIYATSNLASGVPVRFSGSGSGTSYSLTISRVEAEDAATYYCQQWTSNPPTFGGGTKVEIKRTVAAPSVFIFPPSDEQLKSGTASVVCLLNNFYPREAKVQWKVDNALQSGNSQESVTEQDSKDSTYSLSSTLTLSKADYEKHKVYACEVTHQGLSSPVTKSFNRGEC
- EC50 (read off the curve), FcγRIIIa reporter activation [4]: ~30 pM
- EC50 (read off the curve), FcγRIIIa reporter activation [5]: ~40 pM
